experiment: soluble on expression in E. coli; label from the status in PepcDB or PDB records

**Q.** Which “soluble on expression in E. coli” value does the source give for “MILDRERTTGSLFERMEASSARNRQGGSIHSLRQSIRQNLRNILNTRSGSCRGAPELGIDEPEGAENFRESMSRAIEQCIERYEPRISHAEVQAVVSSASSPLDMTFHITAWVTFNETHEVLEFDMAPNGSQHYRVD” here?
**A.** soluble

**Q.** For “MGSDKIHHHHHHMNAEKSPENHNVDHEEIAKFEAVASRWWDLEGEFKPLHRINPLRLGYIAERAGGLFGKKVLDVGCGGGILAESMAREGATVTGLDMGFEPLQVAKLHALESGIQVDYVQETVEEHAAKHAGQYDVVTCMEMLEHVPDPQSVVRACAQLVKPGGDVFFSTLNRNGKSWLMAVVGAEYILRMVPKGTHDVKKFIKPAELLGWVDQTSLKERHITGLHYNPITNSFKLGPGVDVNYMLHTQNK”, which “soluble on expression in E. coli” value is on record?
**A.** not soluble

**Q.** Which “soluble on expression in E. coli” value does the source give for “MGSDKIHHHHHHMLDLKSYREKELASYDLDVELFNEFNFSVYNVMPLRKAFLISTDKGEKILKKIDYTIEEFKFVLAAVNYIKNENEFNRIIDFNKTQSGEYYCIKNGDLYCVMDMIEGKECEFSNPVDLSISSFGLGQLHSASEGFRYSKIASKNICGKMIKGFKRKKEEVNFLKKMVNLYESLNEFDEIFIKNVDYYLEQIDKSIDIMNKSQYYKLCSEEDKIVLCHHDLAHHNIIIKDEEAYFIDFDYAIIDLKVHDLSNIISKAAKVFNYSIDNSKIIISNYCKSNTLSKNEMEVLFGMLSFPEDFYEIVKSYYTKRKDWSNEEFINKMKRKMANEENRVEFLKNFKEDLKI” here?
**A.** not soluble

**Q.** For “NKDNPYIKPDDPRPVVLFCSTFSPSLTCAPEVFEQIKALSQKSQWRWLVQFHPKMKPSIVEQYKTLENENLQFVETDNVIPLLQAGDVMLCDTSSILLMFLMQRKPVVTFKNQSPKAHLIDINRVEEIEPAITRALSRTDDLMAHIHDYCNQIHPTGDGQSSQRVLAATDA”, which “soluble on expression in E. coli” value is on record?
**A.** not soluble

**Q.** For “MEAGGLPLELWRMILAYLHLPDLGRCSLVCRAWYELILSLDSTRWRQLCLGCTECRHPNWPNQPDVEPESWREAFKQHYLASKTWTKNALDLESSICFSLFRRRRERRTLSVGPGREFDSLGSALAMASLYDRIVLFPGVYEEQGEIILKVPVEIVGQGKLGEVALLASIDQHCSTTRLCNLVFTPAWFSPIMYKTTSGHVQFDNCNFENGHIQVHGPGTCQVKFCTFKNTHIFLHNVPLCVLENCEFVGSENNSVTVEGHPSADKNWAYKYLLGLIKSSPTFLPTEDSD”, which “soluble on expression in E. coli” value is on record?
**A.** soluble

**Q.** For “MGTICDAASPTFMLQHWVRDRRRGSRISLEHAIKRQCHDTARLYGLDDRGVIAPGYLADINVIDFDRVRLLKPWLAFDLPAGGKRLLQKAEGYDYTIKGGKVTFRNGEWTGATPGNLIRGPQRADLMEAAELEHHHHHH”, which “soluble on expression in E. coli” value is on record?
**A.** not soluble

**Q.** With “KGDVDEKLLDKGIEAVLDQTDYVNGGFGSAPKFHHAKAVELLLTHHFFTGDEEVLKAAEITLDAMARGGIYDHLLGGFFRYSTDAKWVTPHYEKMLYDNAELLYLYSIAYALTGKRLYQKIADGIVEYYRKFGCSNEGGFYASQDADIGELDEGGYYLFSDRELKEILDEREFRIATLYYDIQGERKLPRIFLTEEEISKILGVSVEEVERAVNSARRKMLEFREQREMPYIDTTIYAGWNGLMIEALCMHHKVFGDNWSLEMAEKTANRLLKEFWDGRELLHTHNVEGLSEDYIFFARGLLALFEVTQRHEYLEKCFEIVDSAVEKFWDGEDGGFFD” as the sequence, how does the “soluble on expression in E. coli” value read?
**A.** not soluble

**Q.** With “MKSFALVRADDSDKVKIALHDLERYGHIQFSATPKCIEPNYADELLVSVMGVSLKSKCNSAALVELNNHAGAAISRLKKIHPPAHIIIISPRHKMFEELAGKFPKYPEFDRTFNHQKSPQGLDMIQEKGESSNA” as the sequence, how does the “soluble on expression in E. coli” value read?
**A.** not soluble

**Q.** For “MAFNGAMSVGAQISDAVILAHSPKSCTHIMYQTISSAGRRTLFERGALLPVSLAPNLESTDMGEAEMIFGGMEKLEEKILELKARQPRAIVVVSACPAGIIGDDIGRTRRFSEPGLPVVTLKTDGNLAGDYLQGMLMAYTSLARQVIRLEHHHHHH”, which “soluble on expression in E. coli” value is on record?
**A.** not soluble

**Q.** With “MGSDKIHHHHHHMNRLVSRSTLLNASRCFSRTAEASAKQTCLIETHKKHGGKLVEFAGYDMPTQYADFSIKESTIHTRKHVSLFDVSHMLQTYITGKDRVAFIESLTTADVQGLQENSGTLSVFTNEKGGIKDDLIIMKTDKDFLFLVTNAGCIEKDLPYLQENAAAWRSKGKDVKIETLDNRGLVAVQGPEMAKVLQEGTDIDLSKLTFMKTTVGKVFGIDGCRVTRCGYTGEDGVEISVDPTKAEQLVERLLASQAGSVKLAGLGARDALRLEAGLCLYGSDIEENTTPIEAGLAFVVAKRRRETLDFPGAEHIVKQLKEKSWPKRRVGLLAPAGRCPRSHLPLIDPLDKCSIGFVTSGCPSPTLGKNIAIAYVDKSHSKIGTKFVVDFGAKQAPVEVVKMPFVPTNYFTGK” as the sequence, how does the “soluble on expression in E. coli” value read?
**A.** not soluble

**Q.** With “MDMTDQAFFKYVRNFNEYQKRSMFGGIGLFSDDAMFALVSNDCCYLRGGNGLDEEFTLLNCEKYKHVKKQTTATVNYYDVTDLFESGFTGLDDLLRKSIDCSIKERKYQKSSASKRLRDLPNMQLTLERMVKKAGIDDVETFLELGPVEVFNKVRVAYGNDVDVKLLWKFAGAIDGVHWKLIQEPRKKQLLALCE” as the sequence, how does the “soluble on expression in E. coli” value read?
**A.** not soluble

**Q.** For “EAVIATDEMNVRSGPGLSYGITAEVKKGERYPILKEDGDWVQIQLGSGEKGWVVSWLITKEDQASTSSSGSSDTVTSTDPDLRMRSGPGTSYEVIGKFPQGSQASVIDKDSGWIKISYHSATGWVSSEYVTSGGSSSASDESDQTEDSGASTTGTVGVSSLNVRASASHDAAIITKLDRGTKLTVLNEKNGWAHIEVNGLKGWVASHYLLTSSVPADDSANAGSSSSAKKAYIMYGGTNLRSDASTSASIVERAAKGDSYTITGSKGSWYEIKLDNGQTAYVANWVVQTSKSAEEAGEPPVSDSPSGNGSLNNKTIIVDPGHGGKDSGTIGYSGKFEKNLTIKTAKLLASKLRSAGADVYVTRQDDTFVSLQSRVSTSHYRNADAFISIHYDSYADTSTRGSTAYYYSPAKDQELASDVHSEVVKRSSIPDRGVLFGDYYVLRENRQPAMLYELGYVSHPQEEAIVHSNSYQEKVTDGIESGLEKYF”, which “soluble on expression in E. coli” value is on record?
**A.** not soluble

**Q.** With “MMRRILLKSIKFYRIYLSPLKRNACCKFIPTCSQYAIDAIEKYGALKGSFMAVKRILRCNPFSKGGYDPVKLEHHHHHH” as the sequence, how does the “soluble on expression in E. coli” value read?
**A.** not soluble

**Q.** For “MNPLHLETLLAIIDEGSFEDAAFALGISPSAVSQRIKALERETGRVVVRRTSPVTATDAGEVLVQSARRMALLQAETNAQLRGRIERIPLSVAVNADSLATWFRRVMASVAEMDNATLHMRIEDESHSLSLLRRGDVLGAVTGEKTPVSGCDSIALGAFRYFAVASPKLLDRYTIDGAVDWERMPVLRFGPRDGLQDRDIKRRLGEVPAGRRVNEIPSSEAFMEAARVGLGWAMLPDIQALPLLDSGEVVMLDSEVHEVPLYWQRWRLESPALERLTQAVVDAALEGLHPLSA”, which “soluble on expression in E. coli” value is on record?
**A.** not soluble

**Q.** With “MGSDKIHHHHHHMKRSQINEIMAEAETFMRSFGFVLPPFAYWTPEEMRANASVAKAVIDGRLGWDITDYGEGKFDELGLFLFTLRNGRLSDLQAGGGMCYAEKLLISKQDQISPMHRHMLKAEDIINRGGATMAIELNGSAPDGSFDPDAGGVVMCDGIERRFSAGEVLLFAPGESVTLMPGDWHKFWGEGGDVLIGEVSTVNNDDTDNWFREPIGRFAAVDEDVAPTHLLVSDYGTWL” as the sequence, how does the “soluble on expression in E. coli” value read?
**A.** not soluble

**Q.** For “MIVLALDVYEGERAIKIAKSVKDYISMIKVNWPLILGSGVDIIRRLKEETGVEIIADLKLADIPNTNRLIARKVFGAGADYVIVHTFVGRDSVMAVKELGEIIMVVEMSHPGALEFINPLTDRFIEVANEIEPFGVIAPGTRPERIGYIRDRLKEGIKILAPGIGAQGGKAKDAVKAGADYIIVGRAIYNAPNPREAAKAIYDEIRGV”, which “soluble on expression in E. coli” value is on record?
**A.** soluble

**Q.** For “MGFGIGDLFWIFLLLTSLQPLWQKRQIEYRRLRALQEFQQERKSRVILLIHRQESISFLGIPISRYITIEDSEQILRAIRLTPPDVPIDLILHTPGGLVLATEQIARALIRHQAKVTVFVPHYAMSGGTMLALASDEIIMDANAVLGPVDPQLGNYPAASILKVIEDKPISEIDDQTLIMADLSRKAIGQVQRFVRTLLKDSIPKQKVLPENIESIIEALTTGRVTHDYPITIEEATEMGLPVTVGLPHSIYDLMDLYPQAQGGRPSVQYIPMPYNDPRPIL”, which “soluble on expression in E. coli” value is on record?
**A.** not soluble

**Q.** For “RPGGDAREPRKIILHKGSTGLGFNIVGGEDGEGIFVSFILAGGPADLSGELRRGDRILSVNGVNLRNATHEQAAAALKRAGQSVTIVAQYRPEEYSRFES”, which “soluble on expression in E. coli” value is on record?
**A.** soluble

**Q.** For “PTILVVGDLMIDHYIWGECERISPEAPVQVIDVKRETKTLGGACNVMSNLIALEASVLSCGVVGEDLAGRELLGFLQELGMESKGIITQKGRPTTQKSRIIASNQQVVRVDWENKSPISEESEEAMIAYIRSKLSLCDAVILSDYGKGVLTPRVCQTIIQMAKTLQKRVLVDPKGRDYSKYRGASLLTPNKKEAKEATGIEINDEASLKKALECLKKECELEFSVITLSEDGIGIFDQALERIPTIAQEVYDVTGAGDTVIASLAYGLSLGYPLRECALFANAAAAVVVGKIGSATATHGEIAEYLHS”, which “soluble on expression in E. coli” value is on record?
**A.** not soluble

**Q.** With “MAVYRNVQVNFWQDDFVLDLTPEERYFYVYLLTCSKTTQCGIFPFPKRLAEMETGYNRETVDKLVQRFVDYGKILYDADTRELFVLNWLRYNPVTNTNVEKCVLRELKSVKNKEFVHMFLQKCVEEELNVPMLLAHFGMPSDLAVDDVEPVCEETEAEEEVIEEETGSRVFSFYEQHFGSLSPFAVEELSAWMEDLSEELVLKALQIAFENNKRTVAYVKGILRGWHGKGFTKVCEVEADTAKFRKKESSVSTGETEEFLARCEEWEKNAPSEEELQRFLAERGWRP” as the sequence, how does the “soluble on expression in E. coli” value read?
**A.** not soluble

**Q.** For “GPGSMLRRCAPLLIGVEGDTFVSAIKDKQYLAHRLAILGKEDPNFKAQCMSDDDIKRFTTSLGSAESLFNKQAGAIPTNVVDEETGRVIGSTQPDPTRYGDWEVNGRCYDF”, which “soluble on expression in E. coli” value is on record?
**A.** soluble

**Q.** For “MRHMSGDHAALVLGAGAGRRLGRSKQLLMRDGEPLLRRAARIALLTAPRRCVVVLGADADTLSEVLQDLDIEILRHPDWSEGMGSSLAALRRHVQGDPALRRSLILGCDQPALDAPHLRSLLEEADRAVSGCATSGYSGVRGIPAVVTHTAWADVPLQADSGLRGLFASLDMQSLGCVSAPALALDIDTPADLATAQQRGWVDAELEHHHHHH”, which “soluble on expression in E. coli” value is on record?
**A.** not soluble

**Q.** Which “soluble on expression in E. coli” value does the source give for “MGSDKIHHHHHHMLTGQRRRESRSRQGSGFPTISYPRIRDGANRPRTRMSPLPEAVPFFSQWETPDMTLAVLADGAEVALRRDLLWQGSGAESLDEYAVWAANICGMACLKMILATRGEIVPTIELARRCTRYGGYVVNEGSIKGLIYAPFVSFVQAEFSLEAQVMTNVATSDIPAILRQSRFFIASVSSSIRWPEGEPPSKGGHLVLVTAASDDGFRFHNPSGHTSVTQANAVLAPADFDRFFANRGIAITI” here?
**A.** not soluble

**Q.** For “STFSKAAPSVPSKPSDCNFISNFYSHSRLHHISMWKCELTEFVNTLQRQSNGIFPGREKLKKMKTGRSALVVTDTGDMSVLNSPRHQSCIMHVDMDCFFVSVGIRNRPDLKGKPVAVTSNRGTGRAPLRPGANPQLEWQYYQNKILKGKAADIPDSSLWENPDSAQANGIDSVLSRAEIASCSYEARQLGIKNGMFFGHAKQLCPNLQAVPYDFHAYKEVAQTLYETLASYTHNIEAVSCDEALVDITEILAETKLTPDEFANAVRMEIKDQTKCAASVGIGSNILLARMATRKAKPDGQYHLKPEEVDDFIRGQLVTNLPGVGHSMESKLASLGIKTCGDLQYMTMAKLQKEFGPKTGQMLYRFCRGLDDRPVRTEKERKSVSAEINYGIRFTQPKEAEAFLLSLSEEIQRRLEATGMKGKRLTLKIMVRKPGAPVETAKFGGHGICDNIARTVTLDQATDNAKIIGKAMLNMFHTMKLNISDMRGVGIHVNQLVPTNLNPST”, which “soluble on expression in E. coli” value is on record?
**A.** soluble

From the DeepSol protein solubility set
